The record followed here is patent US20250326842A1 (BEIGENE SWITZERLAND, published 2025).

This experiment concerns the target T1, human PVRL2 overexpressed on Farage cells (human, UniProt Q92692 32-538).
T1 construct: also called Farage-hPVRL2 cells; surface PVRL2
T1 sequence: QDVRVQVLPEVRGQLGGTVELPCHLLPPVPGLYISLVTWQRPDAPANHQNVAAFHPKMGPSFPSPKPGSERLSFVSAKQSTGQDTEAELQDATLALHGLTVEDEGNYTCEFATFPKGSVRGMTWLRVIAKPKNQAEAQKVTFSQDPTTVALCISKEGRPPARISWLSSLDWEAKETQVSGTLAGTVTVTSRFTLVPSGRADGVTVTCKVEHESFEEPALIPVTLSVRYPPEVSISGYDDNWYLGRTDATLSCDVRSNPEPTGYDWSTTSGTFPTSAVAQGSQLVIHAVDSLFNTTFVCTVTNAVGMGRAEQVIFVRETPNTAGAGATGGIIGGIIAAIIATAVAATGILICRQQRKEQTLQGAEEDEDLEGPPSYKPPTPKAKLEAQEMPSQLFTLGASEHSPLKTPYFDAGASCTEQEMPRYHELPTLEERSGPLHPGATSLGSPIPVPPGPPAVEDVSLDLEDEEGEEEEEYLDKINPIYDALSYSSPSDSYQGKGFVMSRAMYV
As to the kind of experiment: flow cytometry: 300 ng/ml hPVRIG-mIgG2a on Farage-hPVRL2 cells, PE anti-mouse IgG2a [panel A].

B1: human PVRIG-mIgG2a (Fc fusion)
chain: TPEVWVQVRMEATELSSFTIRCGFLGSGSISLVTVSWGGPNGAGGTTLAVLHPERGIRQWAPARQARWETQSSISLILEGSGASSPCANTTFCCKFASFPEGSWEACGSLPPSSDPGLSAPPTPAPILRAD
notes: also called hPVRIG-mIgG2a; hPVRIG; not shown: mouse IgG2a Fc
Take B1: the binding result was “binds”.
